Test system: MS2 coat protein
Assay: apparent KD of MS2 coat protein; designed switch direction (-1 OFF switch, 1 ON switch): -1; higher = weaker reporter binding
In short: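 SNAP-549-labelled MS2 coat protein was titrated, doubling from 0.7 or 1.5 nM to 3 µM, over designed RNA switches transcribed on Illumina chips by stalled E. coli RNA polymerase. Runs were done without input, with 200 uM small-molecule ligand, or with an oligonucleotide input. Apparent KD is the per-design median over clusters of curve-fitted normalised fluorescence.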

[1] = input ligand: microRNA oligo, concentration not stated
[2] = Eterna round: R95, input ligand: microRNA oligo, concentration not stated
[3] = Eterna round: R95, input ligand: FMN 200 uM
[4] = Eterna round: R95, input ligand: none

Row | Sequence | apparent KD of MS2 coat protein (input ligand: FMN 200 uM) [nM] | apparent KD of MS2 coat protein (input ligand: none) [nM] | apparent KD of MS2 coat protein [1] [nM] | apparent KD of MS2 coat protein [2] [nM] | apparent KD of MS2 coat protein [3] [nM] | apparent KD of MS2 coat protein [4] [nM]
1 | UACACCGCAUGAGGAUCAAACAUGAGGAUCACCCAUGUAUAGCAAGCUUUUUGCUCGUCUUAUAAAUAUGUGGUGUA [Electric Eye 8 - Jieux - Sensor, turn-off variant 1] (Eterna round: R97, puzzle: Sensor, turn-off variant 1) | 16.6 | 15.5 |  |  |  | 
2 | UACACUCAGCAGGAUAUGCAACAAAAUUAAAACGCAGAAGGGUUGACAUGAGGAUCACCCAUGUAACUCAUGCA [EX6 A.1] (Eterna round: R97, puzzle: Exclusion 6) | 14.2 | 15.7 |  |  |  | 
3 | UACACUGCAUGAGGAUCAAACAUGAGGAUCACCCAUGUAUAGCAGGCUUUUUGUCCGUCUUAUAAUUAUGUAGUGUA [Electric Eye 17 - Jieux - Sensor, turn-off variant 1] (Eterna round: R97, puzzle: Sensor, turn-off variant 1) | 17.3 | 15 |  |  |  | 
4 | UACAUGAGGAUCACCCAUGUACCUUAUGUAAGAGUGGGAAGUAAGGAUAUAUAUGAAGGAAUGAAAUAGAAGGUGCAUAGAGAG [Default title] (Eterna round: R96, puzzle: Exclusion NG 3) | 121 | 93.3 | 97.4 |  |  | 
5 | UACAUGAGGAUCACCCAUGUUUUGUCGUGUAUGGUAUUUAUCUAGGAUAUCAAGUUAUGUAUUUAUGAGAAGGAGAAUAUUAAU [JMF's solution 31] (Eterna round: R96, puzzle: Exclusion NG 3) | 40.4 | 43.2 | 35.3 |  |  | 
6 | UACAUGAGGAUCACCCAUGUUUUGUCGUGUAUGGUAUUUAUCUAGGAUAUCAAGUUAUUUAUGUAUGAGAAGGAGAAUAUUAAU [JMF's solution 36] (Eterna round: R96, puzzle: Exclusion NG 3) | 42.5 | 35.2 | 26.4 |  |  | 
7 | UACAUGAGGAUCACCCAUGUUUUGUCGUGUAUGGUAUUUAUCUAGGAUAUCAAGUUAUUUGUUUAUGAGAAGGAGAAUAUUAAU [JMF's solution 33] (Eterna round: R96, puzzle: Exclusion NG 3) | 37.1 | 37.1 | 26.1 |  |  | 
8 | UACAUGAGGAUCACCCAUGUUUUGUCGUGUAUGGUAUUUAUCUAGGAUAUCAAUGUAUUUAUUCAUGAGAAGGAGAAUAUUAAU [JMF's solution 48] (Eterna round: R96, puzzle: Exclusion NG 3) | 32.4 | 33.7 | 28.3 |  |  | 
9 | UACAUGAGGAUCACCCAUGUUUUGUCGUGUAUGGUAUUUAUCUAGGAUAUCAAUUGAAUUAUUUAUGAGAAGGAGAAUAUUAAU [JMF's solution 58] (Eterna round: R96, puzzle: Exclusion NG 3) | 42 | 49 | 36.4 |  |  | 
10 | UACAUGAGGAUCACCCAUGUUUUGUCGUGUAUGGUAUUUAUCUAGGAUAUCAAUUUACUUAUUUAUGAGAAGGAGAAUAUUAAU [JMF's solution 19] (Eterna round: R96, puzzle: Exclusion NG 3) |  |  | 26.8 |  |  | 
11 | UACAUGAGGAUCACCCAUGUUUUGUCGUGUAUGGUAUUUAUCUAGGAUAUCAAUUUAGUUAAUUAUGAGAAGGAGAAUAUUAAU [JMF's solution 75] (Eterna round: R96, puzzle: Exclusion NG 3) |  |  | 28.9 |  |  | 
12 | UACAUGAGGAUCACCCAUGUUUUGUCGUGUAUGGUAUUUAUCUAGGAUAUCAUUGUAUUUAGUUAUGAGAAGGAGAAUAUUAAU [JMF's solution 83] (Eterna round: R96, puzzle: Exclusion NG 3) | 30.2 | 33 | 22.9 |  |  | 
13 | UACCUCACUUCUUUGACUCACAUGAGGAUCACCCAUGUAAUAUAGGAUAUGCAUUUUAUUUCUUUGCAGAAGGAUAUUAGUUUU [JR_ExcNG3_Sub089] (Eterna round: R96, puzzle: Exclusion NG 3) |  |  | 31.3 |  |  | 
14 | UACUAUAAGGAGGAUAUCGUAUCGGAAACGAUACGAGAAGGCUUAACAUGAGGAUCACCCAUGUUCUUCAAUAA [Fiskers Ex 6 - 25] (puzzle: Exclusion 6) |  |  |  | 16.2 |  | 
15 | UACUAUAAGGAGGAUAUCGUAUCGGAAACGAUACGAGAAGGCUUAACAUGAGGAUCACCCAUGUUCUUCAAUAU [Fiskers Ex 6 - 26] (puzzle: Exclusion 6) |  |  |  | 16.2 | 16 | 14.6
16 | UAGAAGGUAGGAUAUACGAAUAAAUAGGGUAGUAAUAAUACACAUGAGGAUCACCCAUGUAGAAGGACCAAGAU [Mat - Exclusion 2 - Mod of my Tesla design - D31] (puzzle: Exclusion 2) |  |  |  | 20.1 | 44.2 | 23

Row | Sequence | apparent KD of MS2 coat protein (input ligand: FMN 200 uM) [nM] | apparent KD of MS2 coat protein (input ligand: none) [nM] | apparent KD of MS2 coat protein [1] [nM] | apparent KD of MS2 coat protein [2] [nM] | apparent KD of MS2 coat protein [3] [nM] | apparent KD of MS2 coat protein [4] [nM]
17 | UAGAGACAUGAGGAUCACCCAUGUGAGGAUAUAGAGAAAGAUUGCGAGAGGGAGAGGACUAGAAGGCACAGUGA [JR_Exclu1_Sub033] (puzzle: Exclusion 1) |  |  |  | 48.8 | 39.1 | 51.9
18 | UAGAUGGCUCAGGAUAUUUGCCAACUAACUCGCGAAGAAGGGAGCACAUGAGGAUCACCCAUGUGAUCGAACGG [Rila] (puzzle: Exclusion 6) |  |  |  | 16.3 |  | 
19 | UAGAUGGGAGGAUAUACAUAGAUACAGAUUCAUGUAGUGCUACAUGAGGAUCACCCAUGUAGAAGGCCCGUCUU [JL-ex2-2.18 Mayanne mod] (Eterna round: R96, puzzle: Exclusion 2) | 407 | 37.9 | 33.2 |  |  | 
20 | UAGAUGGGAGGAUAUACAUAGAUACAGAUUCAUGUAGUGCUACAUGAGGAUCACCCAUGUAGAAGGCCCGUCUU [JL-ex2-2.18 Mayanne mod] (puzzle: Exclusion 2) |  |  |  | 31.6 |  | 
21 | UAGAUGGGAGGAUAUGCGUAGAUGCGGAUUCGUGUGGUGCUACAUGAGGAUCACCCAUGUAGAAGGCCCGUCUU [JL-ex2-2.26 Mayanne mod] (puzzle: Exclusion 2) |  |  |  | 13.5 |  | 
22 | UAGAUGUGAGGAUAUACAUGAAUGCAGGAUCGUGUGGUGCUACAUGAGGAUCACCCAUGUAGAAGGCACGUCUU [Mod 9 R3 JL-ex2-2.29 - Jieux - Exclusion 2] (Eterna round: R97, puzzle: Exclusion 2) | 20 | 13.9 |  |  |  | 
23 | UAGCAUUGCCUUUGGUAGUGCUUUACAUGAGGAUCACCCAUGUAGGAUAUGGUAGGCUUUGCUUACCAGAAGGACAUGAUAAUU [JL ENG3 1.04] (Eterna round: R96, puzzle: Exclusion NG 3) |  |  | 52.3 |  |  | 
24 | UAGCUUCCGGUCAGGAUAUACGCUGGCGAAUAGCAGUAGAAGGGACAUGAGGAUCACCCAUGUGGGUUCAAAGA [Zabetima] (puzzle: Brourd's mod of Exclusion 4) |  |  |  | 39.4 | 91 | 44.2
25 | UAGGUGUGAGGAUAUGGUAAAGAUAAGAUGAUGAAAGAACUCCAGAAGGCACAUGAGGAUCACCCAUGUAGAUA [Mat - Exclusion 4 - Mod of JL - D31] (puzzle: Exclusion 4) |  |  |  | 20 | 34.9 | 20.5
26 | UAGUAGCAAGGAUAUACAGAGGAGAGGAUUGCAAGAGGUGGACAUGAGGAUCACCCAUGUAGAAGGUGCAGAGA [JR_Exclu2_Sub021] (puzzle: Exclusion 2) |  |  |  | 275 | 310 | 362
27 | UAGUGCUGAGGAUAUACAUGAGGAUCACCCAUGUGCCUUUAACUUAAAGUGUGCACAAGUAGAAGGCGGUGCAA [Eternabot (L1) Solution 93] (Eterna round: R97, puzzle: Exclusion 3) | 20 | 19.5 |  |  |  | 
28 | UAUACUAGAUAGGAUAUACUAUAUAAAUAAUUCGUAGAAGGAUCUACAUGAGGAUCACCCAUGUUAACAGCAGU [JR_E6_Sub005] (puzzle: Exclusion 6) |  |  |  | 46.6 | 30.7 | 46.6
29 | UAUAUAUAGUAAGGAUAUGUAAAUAUUUUAUAAACAGAAGGUACUGACAUGAGGAUCACCCAUGUUUUAGUGUGGGCAUGUAGA [JMF's solution 28] (Eterna round: R96, puzzle: Exclusion NG 1) |  |  | 66.2 |  |  | 
30 | UAUAUAUAGUAAGGAUAUGUAAUUAGUUUAUAAACAGAAGGUACUGACAUGAGGAUCACCCAUGUUUUAGUGUGGGCAUGUAGA [JMF's solution 36] (Eterna round: R96, puzzle: Exclusion NG 1) |  |  | 61.3 |  |  | 
31 | UAUAUAUAGUAAGGAUAUGUAUAUAUUUCAUAAACAGAAGGUACUGACAUGAGGAUCACCCAUGUUUUAGUGUGGGCAUGUAGA [JMF's solution 65] (Eterna round: R96, puzzle: Exclusion NG 1) |  |  | 48 |  |  | 
